Patent publication US20210033609A1 (EUROIMMUN MEDIZINISCHE LABORDIAGNOSTIKA, published 2021)

T1: bovine Apolipoprotein A-I (Bos taurus, UniProt P15497 25-265)
T1 construct: also called bovine apolipoprotein A1; Apo AI[Bos taurus]
T1 sequence: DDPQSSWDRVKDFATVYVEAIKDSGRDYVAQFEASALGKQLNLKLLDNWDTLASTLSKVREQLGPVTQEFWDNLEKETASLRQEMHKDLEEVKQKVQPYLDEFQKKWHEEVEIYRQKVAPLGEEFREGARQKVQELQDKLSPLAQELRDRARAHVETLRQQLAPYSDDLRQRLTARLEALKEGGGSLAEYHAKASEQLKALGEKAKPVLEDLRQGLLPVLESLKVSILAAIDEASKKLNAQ


Assays:
[1] = target: the molecule itself; assay: self-association; analytical gel filtration (Superdex 200)
[2] = target: T1, bovine Apolipoprotein A-I; assay: co-purification from cell culture supernatant on nickel affinity resin via the His tag of NS1

Binder | binding result [1] | binding result [2]
sNS1 (recombinant Zika virus NS1 purified from HEK293T culture supernatant) (other, Secreted form purified in the presence of 0.1% Triton X-100; Gel filtration: mainly hexamer (227 kDa); also called NS1[ZIKV]; soluble NS1 purified from cell culture supernatant) GPMDVGCSVDFSKKETRCGTGVFVYNDVEAWRDRYKYHPDSPRRLAAAVKQAWEEGICGISSVSRMENIMWKSVEGELNAILEENGVQLTVVVGSVKNPMWRGPQRLPVPVNELPHGWKAWGKSYFVRAAKTNNSFVVDGDTLKECPLKHRAWNSFLVEDHGFGVFHTSVWLKVREDYSLECDPAVIGTAVKGKEAAHSDLGYWIESEKNDTWRLKRAHLIEMKTCEWPKSHTLWTDGVEESDLIIPKSLAGPLSHHNTREGYRTQVKGPWHSEELEIRFEECPGTKVHVEETCGTRGPSLRSTTASGRVIEEWCCRECTMPPLSFRAKDGCWYGMEIRPRKEPESNLVRSMVTALEHHHHHHHH | binds | binds
mNS1 (recombinant Zika virus NS1 purified from HEK293T cell lysate) (other, Expressed in HEK293T from pTriEx-1; Gel filtration: mainly hexamer (212 kDa) with an extra monomer peak (44 kDa); SDS gives a dimer, heat gives a monomer; also called NS1[ZIKV]; membranous NS1 purified from cells) GPMDVGCSVDFSKKETRCGTGVFVYNDVEAWRDRYKYHPDSPRRLAAAVKQAWEEGICGISSVSRMENIMWKSVEGELNAILEENGVQLTVVVGSVKNPMWRGPQRLPVPVNELPHGWKAWGKSYFVRAAKTNNSFVVDGDTLKECPLKHRAWNSFLVEDHGFGVFHTSVWLKVREDYSLECDPAVIGTAVKGKEAAHSDLGYWIESEKNDTWRLKRAHLIEMKTCEWPKSHTLWTDGVEESDLIIPKSLAGPLSHHNTREGYRTQVKGPWHSEELEIRFEECPGTKVHVEETCGTRGPSLRSTTASGRVIEEWCCRECTMPPLSFRAKDGCWYGMEIRPRKEPESNLVRSMVTALEHHHHHHHH | binds | –
